Experimental data as given in article PMC8497620, “Structure and inhibition of Cryptococcus neoformans sterylglucosidase to develop antifungal agents” (Nature Communications, 2021).

biological target: C. neoformans Sgl1 (Cryptococcus neoformans var. grubii, UniProt J9W473); experiment: H/D exchange mass spectrometry mapping of disordered regions; conditions: H/D exchange MS of C. neoformans Sgl1; per peptide (amino acids Start-End, Sequence); Fig S2a
Procedure: HDX-MS reactions were performed in a similar manner as is outlined in previous publications. HDX reactions were conducted in a final reaction volume of 50 µL with a final Sgl1 concentration of 0.6 µM (30 pmol). Exchange was carried out in triplicate for a single time point (3 s at 4 °C). Hydrogen deuterium exchange was initiated by the addition of 48 µL of D2O buffer (100 mM NaCl (20 mM pH 6.0 Bis-Tris), 90.5% D2O (V/V) to 1 µL of protein and 1 µL of H2O. Exchange was terminated by the addition of ice-cold acidic quench buffer, resulting in a final concentration of 0.6 M guanidine-HCl and 0.9% FA post quench. Samples were immediately frozen in liquid nitrogen and stored at −80 °C. Fully deuterated samples were generated by first denaturing the protein in 2 M guanidine for 5 min at 20 °C. Following denaturing, 48 µL of D2O buffer was added to the denatured protein and allowed to incubate for 5 min at 20 °C before quenching. Samples were flash frozen and stored at −80 °C until injection onto the ultra-performance liquid chromatography (UPLC) system for proteolytic cleavage, peptide separation, and injection onto a QTOF for mass analysis.
Protein sample was rapidly thawed and injected onto a UPLC system kept in a cold box at 2 °C. The protein was run over two immobilized pepsin columns (Applied Biosystems; Porosyme 2-3131-00) and the peptides were collected onto a VanGuard Precolumn trap (Waters). The trap was eluted in line with an ACQUITY 1.7 μm particle, 100 × 1 mm^2 C18 UPLC column (Waters), using a gradient of 5–36% B (Buffer A 0.1% formic acid, Buffer B 100% acetonitrile) over 16 min. MS experiments were performed on an Impact QTOF (Bruker) and peptide identification was done by running tandem MS (MS/MS) experiments run in data-dependent acquisition mode. The resulting MS/MS dataset was analyzed using PEAKS7 (PEAKS) and a false discovery rate was set at 1% using a database of purified proteins and known contaminants. HDExaminer Software (Sierra Analytics) was used to automatically calculate the level of deuterium incorporation into each peptide. All peptides were manually inspected for correct charge state and presence of overlapping peptides. Deuteration levels were calculated using the centroid of the experimental isotope clusters, with correction for back exchange generated using the fully deuterated sample. The mass spectrometry proteomics data have been deposited to the ProteomeXchange Consortium via the PRIDE partner repository[31] with the dataset identifier PXD024981.

C. neoformans Sgl1, sequence (J9W473 entry or part of it): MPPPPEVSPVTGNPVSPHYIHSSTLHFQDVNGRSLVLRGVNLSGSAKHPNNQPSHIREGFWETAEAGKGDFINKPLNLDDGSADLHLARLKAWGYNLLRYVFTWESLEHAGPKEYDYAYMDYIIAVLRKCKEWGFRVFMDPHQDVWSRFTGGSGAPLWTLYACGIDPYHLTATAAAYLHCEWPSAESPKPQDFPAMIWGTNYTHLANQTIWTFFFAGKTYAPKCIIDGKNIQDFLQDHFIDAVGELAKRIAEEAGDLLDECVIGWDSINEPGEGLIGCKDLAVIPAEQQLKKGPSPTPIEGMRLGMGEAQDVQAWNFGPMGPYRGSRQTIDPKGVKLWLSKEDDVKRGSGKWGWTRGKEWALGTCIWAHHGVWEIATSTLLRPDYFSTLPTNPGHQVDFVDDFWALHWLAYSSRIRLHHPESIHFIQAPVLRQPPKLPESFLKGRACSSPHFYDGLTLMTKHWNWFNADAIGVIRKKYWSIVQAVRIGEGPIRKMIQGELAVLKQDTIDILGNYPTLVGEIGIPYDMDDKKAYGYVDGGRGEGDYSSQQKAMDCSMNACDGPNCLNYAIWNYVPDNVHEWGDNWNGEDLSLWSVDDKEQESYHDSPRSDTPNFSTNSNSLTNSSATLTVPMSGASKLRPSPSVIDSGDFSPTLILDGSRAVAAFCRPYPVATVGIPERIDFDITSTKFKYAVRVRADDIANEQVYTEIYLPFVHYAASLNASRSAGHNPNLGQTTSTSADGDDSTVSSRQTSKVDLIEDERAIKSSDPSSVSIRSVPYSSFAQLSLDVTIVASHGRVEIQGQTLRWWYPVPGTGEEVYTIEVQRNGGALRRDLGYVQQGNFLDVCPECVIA

Substance | % Deuterium incorporation, Average [%]
LSGSAKHPNNQPSHIREGF | 54.3
AKRIAEEAGDL | 9.2
LKKGPSPTPIEG | 11.2
IDILGNYPTL | 20.4
FCRPYPVATVGIPERIDF | 5.0
LTVPMSGASKLRPSPSV | 86.0
RVFMDPHQDVW | 3.4
LRWWYPVPGTGE | 31.2
STLPTNPGHQVDF | 73.1
STNSNSLTNSSATLTVPMSG | 99.8
VTIVASHGRVEIQGQTLRWWYPVPGTGE | 23.1
LRPDYFSTLPTNPGHQVDF | 37.3
TVGIPERIDF | 7.3
RWWYPVPGTGE | 36.9
WLSKEDDVKRGSGKWGWTRGKEWALGTCIWAHHGVWE | 11.7
VIGWDSINEPGEGL | 4.0
EIYLPFVHY | 0.7
HCEWPSAESPKPQDFPAM | 59.9
ILDGSRAVAAF | 24.1
LTVPMSGASKLRPSPSVIDSGDFSPTL | 59.4
FCRPYPVA | 21.1
RWWYPVPGTGEEV | 29.8

Substance | % Deuterium incorporation, Average [%]
YVDGGRGEGDYSSQQ | 65.8
WNFGPMGPYRGSRQTIDPKG | 43.4
AVIPAEQQLKKGPSPTPIEG | 30.1
ARLKAWGYNLL | 2.5
RWWYPVPGTG | 40.0
NYVPDNVHE | 30.1
TIEVQRNGGAL | 26.9
STNSNSLTNSSAT | 101.5
NASRSAGHNPNLGQTTSTSADGDDSTVSSRQTSKVDL | 102.1
RAIKSSDPSSV | 101.5
IKSSDPSSVSIRSVPYSSF | 106.5
DERAIKSSDPSS | 103.7
DITSTKFKYAVRVRADDIANE | 9.0
YVDGGRGEGDYSSQQKAMD | 51.4
IEDERAIKSSDPSSVSIRSVPYSSF | 100.4
SADGDDSTVSSRQTSKVDL | 103.2
IEVQRNGGALRRDLG | 58.5
ASKLRPSPSVIDSGDFSPTL | 47.3
RRDLGYVQQGNF | 98.0
LRWWYPVPGTGEEVY | 19.1
RADDIANE | 33.8
YVDGGRGEGDYSSQ | 64.9

Substance | % Deuterium incorporation, Average [%]
VGIPERIDF | 8.3
AASLNASRSAGHNPNLGQTTSTSADGDDSTVSSRQTSKVDL | 100.9
CKDLAVIPAEQQLKKGPSPTPIEG | 25.2
LVLRGVNLSGSAKHPNNQPSHIREGF | 33.7
SRSAGHNPNLGQTTSTSADGDD | 102.7
MRLGMGEAQDVQAWNFGPMGPYRGSRQTIDPKGVKL | 19.3
LVLRGVNL | 7.5
AVRIGEGPIRKMIQGEL | 20.2
VTIVASHGRVEIQGQTLRWWYPVPGTGEEVY | 18.9
LDVCPEC | 80.8
RGVNLSGSAKHPNNQPSHIREGF | 44.7
SIRSVPYSSF | 96.6
IQAPVLRQPPKLPES | 35.7
DDGSADLHL | 35.8
IDAVGEL | 5.7
ATLTVPMSGASKLRPSPSVIDSGDFSPTL | 63.6
VLKQDTIDILGNYPTL | 10.8
YVDGGRGEGD | 72.5
WSRFTGGSGAPLWTL | 5.9
TVPMSGASKLRPSPSV | 90.4
LRWWYPVPGTGEEV | 23.5
RFTGGSGAPLWTL | 6.3

Substance | % Deuterium incorporation, Average [%]
DVTIVASHGRVEIQGQTL | 21.1
YACGIDPYHLTATA | 18.2
VIGWDSINEPGEGLIGCKDL | 5.1
IEDERAIKSSDPSSV | 101.6
RAIKSSDPSSVS | 104.6
IQAPVLRQPPKLPESFL | 31.8
WESLEHAGPKEYDY | 7.1
QQLKKGPSPTPIEG | 10.8
QDVNGRS | 17.0
IYLPFVHY | 2.9
YTHLANQTIWTF | 3.6
QLKKGPSPTPIEG | 10.2
YAIWNYVPDNVHEWGDN | 15.4
IGCKDLAVIPAEQQLKKGPSPTPIEG | 24.8
IGWDSINEPGEGL | 4.5
WLSKEDDVKRGSGKWGWTRGKE | 27.6
VIRKKYWSIVQ | 49.5
DTIDILGNYPTL | 14.2
DVTIVASHGRVEIQGQTLRWWYPVPGTGEEV | 19.0
HCEWPSAESPKPQDF | 58.4
GQTTSTSADGDDSTVSSRQTSKVDL | 102.4
YLHCEWPSAESPKPQDF | 52.9

Substance | % Deuterium incorporation, Average [%]
LVLRGVNLSGSAKHPNNQPSH | 28.6
WSVDDKEQESY | 71.0
SYHDSPRSDTPNF | 96.9
AVLKQDTIDILGNYPTL | 14.1
NYVPDNVHEWGDN | 41.1
LAYSSRIRLHHPESIHF | 4.9
IIDGKNIQDFLQDHF | 7.4
MRLGMGEAQDVQA | 6.8
KDLAVIPAEQQLKKGPSPTPIEG | 24.0
NYAIWNYVPDNVHE | 17.1
KKGPSPTPIEG | 6.7
ERAIKSSDPSS | 103.4
AKRIAEEAGDLLDE | 12.0
MRLGMGEAQ | 9.3
YVQQGNF | 102.8
VIGWDSINEPGEGLIG | 3.9
KYAVRVRADDIANE | 12.4
WAHHGVWEI | 2.5
TGGSGAPLWTL | 5.6
WSVDDKEQESYHDSPRSDTPNF | 83.4
STNSNSLTNSSATLTVPMSGASKLRPSPSV | 91.4
RRDLGYV | 59.6

Substance | % Deuterium incorporation, Average [%]
KKAYGYVDGGRGEGDYSSQQKAMD | 29.0
YACGIDPYHLTA | 15.5
ASKLRPSPSVIDSGDFSPTLIL | 40.9
SLEHAGPKEYD | 7.5
NACDGPNCLN | 19.4
YVQQGNFL | 101.5
AYSSRIRLHHPESIHFI | 3.1
VWEIATSTLLRPDYFS | 21.9
PVLRQPPKLPES | 47.4
AIWNYVPDNVHEWGDN | 23.9
TLMTKHWNWFNA | 34.8
WNFGPMGPYRGSRQ | 53.6
FLKGRACSSPHF | 26.5
TVPMSGASKLRPSPSVIDSGDFSPTL | 57.8
STNSNSLTNSSATLTVPMSGASKLRPSPSVIDSGDFSPTL | 72.8
IKSSDPSS | 106.2
CVIGWDSINEPGEG | 3.6
STLPTNPGHQVD | 53.3
VQRNGGALRRDLG | 72.0
VGEIGIPYDMD | 24.9
RIRLHHPESIHF | 6.5
AVIPAEQQL | 59.2
